No end group written: not given here. FI = 5(6)-carboxyfluorescein
What was measured:
Experiment in all cases: cell-based or functional assay
[1] = biological target: MBP-Int^C-TycB1 with the AceL-TerL MX1 mutant (M1^C)
[2] = biological target: M2^C-Trx-H6 (AceL-TerL Int^C mutant M2: S38G, N46I, N54D, L55Q) [thioredoxin: P0AA25]
[3] = biological target: M1^C-Trx-H6 (AceL-TerL Int^C mutant M1: N46D, L55Q) [thioredoxin: P0AA25]
Sequence of M1^C-Trx-H6 (AceL-TerL Int^C mutant M1: N46D, L55Q) [thioredoxin: P0AA25] (P0AA25 other isoform, or with tags, fused parts or gaps N46D L55Q N46D L55Q): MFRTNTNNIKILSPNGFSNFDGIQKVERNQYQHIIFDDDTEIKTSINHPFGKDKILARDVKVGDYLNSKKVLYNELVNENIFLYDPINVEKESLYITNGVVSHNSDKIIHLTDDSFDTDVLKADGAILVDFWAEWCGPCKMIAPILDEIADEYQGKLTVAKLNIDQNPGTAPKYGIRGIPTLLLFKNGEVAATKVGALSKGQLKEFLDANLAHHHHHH

Sequence of MBP-Int^C-TycB1 with the AceL-TerL MX1 mutant (M1^C) (main, as listed by the source, stated change not applied): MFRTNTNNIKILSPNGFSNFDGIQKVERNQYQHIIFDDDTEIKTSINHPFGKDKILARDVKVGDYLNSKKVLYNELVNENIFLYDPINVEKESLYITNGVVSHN
Sequence of M2^C-Trx-H6 (AceL-TerL Int^C mutant M2: S38G, N46I, N54D, L55Q) [thioredoxin: P0AA25] (P0AA25 other isoform, or with tags, fused parts or gaps S38G N46I N54D L55Q S38G N46I N54D L55Q): as the sequence (P0AA25 other isoform, or with tags, fused parts or gaps N46D L55Q N46D L55Q) above, with S13G, D21I, N29D counted along it

Row | splicing rate at 8° C. against the M86 DnaB mutant intein [1] [fold higher] | splicing rate at 8° C. against the unevolved wild-type AceL-TerL intein [1] [fold higher] | splicing yield at 8° C. [1] [%] | splicing rate at 37° C. against the wild-type [2] [fold faster] | splicing rate at 37° C. against the wild-type [3] [fold faster] | Binder
1 | 13 | 15 | 80 to 95 |  |  | {FI}-KKEFECVYGDTMVETEDGKIKIEDLYKRLA [pepWT^N (FI-KKEFE-IntN), synthetic peptide with the Int^N of the AceL-TerL intein]
2 |  |  |  | 56 | 29 | {FI}-KKEFECVSGDTMVETEDGKIKIEDLYKRLA [pepM3^N (FI-KKEFE-IntN with the M3 Int^N, Y3S)]
